B1: ePGDM9 (antibody, V domains shown)
VH: QAQLVQSGPEVRKPGTSVKVSCKNPGNTLTTYDLHWVRQVPGQGLQWMGWISHEGDKKVIVERFKAKVTIDWDRSTNTAYLQLSGLTSEDTAVYYCAKGSKHRLRDYALYDEDGALNWAVDVDYLANLEFWGQGTAVTVSS
VL: DIVLTQSPLSLSVTPGESASISCKSSQSLIHGDRNNYLAWYVQKPGRSPQLLIDLASERASGVPDRFSGSGSRKDFTLKISRVETEDVGTYYCMQGRESPWTFGQGTKVDIK
B2: ePGDM5 (antibody, V domains shown)
VH: QAQLVQSGPEVRKPGTSVKVSCKNPGNTLTTYDLHWVRQVPGQGLQWMGWISHEGDKKVIVERFKAKVTIDWDRSTNTAYLQLSGLTSEDTAVYYCAKGSKHRLRDYALYDEDGALNWAVDVDYLANLEFWGQGTAVTVSS
VL: DFVLTQSPLSLSVTPGESASISCKSDHSLQHGDRNNYLAWYVQKPGRSPQLLIDLASERASGVPDRFSGSGSRKDFTLKIDRVEAEDVGTYYCMQGRESPWTFGQGTKVDIK
B3: PGDM1400 (antibody, V domains shown)
VH: QVHLTQSGPEVRKPGTSVKVSCKAPGNTLKTYDLHWVRSVPGQGLQWMGWISHEGDKKVIVERFKAKVTIDWDRSTNTAYLQLSGLTSGDTAVYYCAKGSKHRLRDYALYDDDGALNWAVDVDYLSNLEFWGQGTAVTVSS
VL: DFVLTQSPHSLSVTPGESASISCKSSHSLIHGDRNNYLAWYVQKPGRSPQLLIYLASSRASGVPDRFSGSGSDKDFTLKISRVETEDVGTYYCMQGRESPWTFGQGTKVDIK
B4: ePGDM13 (antibody, V domains shown)
VH: QAQLVQSGPEVRKPGTSVKVSCKNPGNTLTTYDLHWVRQVPGQGLQWMGWISHEGDKKVIVERFKAKVTIDWDRSTNTAYLQLSGLTSEDTAVYYCAKGSKHRLRDYALYDEDGALNWAVDVDYLANLEFWGQGTAVTVSS
VL: DIVLTQSPLSLSVTPGESASISCKSSHSLQHGDRNNYLAWYVQKPGRSPQLLLDLASERASGVPDRFSGSGSEKDFTLKISRVETEDVGTYYCMQGRESPWTFGQGTKVDIK

Assays:
Assay in all cases: cell-based or functional assay
[1] = target: HIV Env, isolate Ce0682_E4 (HIV)
[2] = target: HIV Env, isolate ZM135M.PL10a (HIV)
HIV Env, isolate CNE17 = HIV Env, isolate CNE17 (HIV)
[3] = target: HIV Env, isolate CAP210.2.00.E8 (HIV)
[4] = target: HIV Env, isolate RHPA4259.7 (HIV)
HIV Env, isolate CNE53 = HIV Env, isolate CNE53 (HIV)
[5] = target: HIV Env, isolate 89-F1_2_25 (HIV)
[6] = target: HIV Env, isolate HIV-16845-2.22 (HIV)
[7] = target: HIV Env, isolate 6952.v1.c20 (HIV)
HIV Env, isolate Du422.1 = HIV Env, isolate Du422.1 (HIV)
[8] = target: HIV Env, isolate HIV-001428-2.42 (HIV)
[9] = target: HIV Env, isolate P1981_C5_3 (HIV)
[10] = target: HIV Env, isolate Ce703010054_2A2 (HIV)

Binder | IC80 (µg/ml) with constrains [1] | IC80 (µg/ml) with constrains [2] | IC80 (µg/ml) with constrains (HIV Env, isolate CNE17) | IC80 (µg/ml) with constrains [3] | IC80 (µg/ml) with constrains [4] | IC80 (µg/ml) with constrains (HIV Env, isolate CNE53) | IC80 (µg/ml) with constrains [5] | IC80 (µg/ml) with constrains [6] | IC80 (µg/ml) with constrains [7] | IC80 (µg/ml) with constrains (HIV Env, isolate Du422.1) | IC80 (µg/ml) with constrains [8] | IC80 (µg/ml) with constrains [9] | IC80 (µg/ml) with constrains [10]
B1 | 0.022 µg/mL | > 100 µg/mL | 0.01 µg/mL | 0.221 µg/mL | 0.578 µg/mL | 0.029 µg/mL | 0.004 µg/mL | > 100 µg/mL | 0.21 µg/mL | 53.2 µg/mL | 0.008 µg/mL | 0.585 µg/mL | 0.032 µg/mL
B2 | 0.021 µg/mL | > 100 µg/mL | 0.028 µg/mL | 0.226 µg/mL | 1.86 µg/mL | 0.081 µg/mL | 0.006 µg/mL | > 100 µg/mL | 0.132 µg/mL | 34.6 µg/mL | 0.013 µg/mL | 1.18 µg/mL | 0.034 µg/mL
B3 | 0.037 µg/mL | > 100 µg/mL | 0.018 µg/mL | 1.32 µg/mL | 1.96 µg/mL | 0.105 µg/mL | 0.013 µg/mL | > 100 µg/mL | 7.03 µg/mL | > 100 µg/mL | 0.054 µg/mL | 75.6 µg/mL | 0.057 µg/mL
B4 | 0.043 µg/mL | > 100 µg/mL | 0.031 µg/mL | 0.538 µg/mL | 1.43 µg/mL | 0.059 µg/mL | 0.006 µg/mL | > 100 µg/mL | 0.318 µg/mL | > 100 µg/mL | 0.011 µg/mL | 1.28 µg/mL | 0.031 µg/mL
